Key:
[1] = tested on: Bax-deficient HCT116 cells; test: STS-induced apoptosis in Bax-deficient HCT116 cells; assay type: cell-based, human
Bax = Bax (Homo sapiens, UniProt Q07812); test: Suppression of apoptosis induced by Bax over-expression (Humanin mutants); assay type: cell-based; set-up: expressed in transfected cells; host or cells: HEK293T; conditions: GFP-fusion polypeptides, 3:1 ratio of HN:Bax plasmid DNA
Procedure: Apoptosis assays were performed as follows. Both floating and adherent cells (after trypsinization) were collected 48 hr after transfection, fixed, and stained using 4′,6-diamidine-2′-phenylindole dihydrochloride (DAPI) for assessing apoptosis based on nuclear fragmentation and chromatin condensation (Fields and Song, supra (1989)).
In order to explore whether a correlation exists between Humanin binding to Bax and Humanin-mediated suppression of apoptosis, Bax was co-expressed with various GFP-fusion polypeptides encoding wild-type, full-length Humanin or various truncation and site-specific mutants of Humanin (Table 1). Expression of all GFP-fusion polypeptides was confirmed by immunoblotting, and ability to bind Bax was determined by co-immunoprecipitation assay. Each Humanin mutant was scored for ability to suppress apoptosis induced by Bax over-expression by >50% using a 3:1 ratio of HN:Bax plasmid DNA. […] Based on these studies, an active region of the 24 amino-acid Humanin peptide, mapped to residues 7-17.
Cell culture and transfections were performed as follows. CSM14.1, HCT116, Cos-7, and SF268 cells were cultured in DMEM high glucose media (Irvine Scientific, Santa Ana, Calif.) containing 10% fetal bovine serum (FBS). PC-3 cells were cultured with RPMI 1640 media containing 10% FBS. Transfection of cells was performed using SuperFect (Qiagen, Chatsworth, Calif.) or LipofectaminePLUS reagent ([…]).

t-Bid = biological target: T1, t-Bid (Homo sapiens, UniProt P55957); test: Bid-induced apoptosis in CSM14.1 cells (DAPI staining); assay type: cell-based; set-up: expressed in transfected cells; host or cells: CSM14.1 rat hippocampal neuronal cells; conditions: 24 hours after transfection
T1 sequence (P55957 61-195 limits assumed): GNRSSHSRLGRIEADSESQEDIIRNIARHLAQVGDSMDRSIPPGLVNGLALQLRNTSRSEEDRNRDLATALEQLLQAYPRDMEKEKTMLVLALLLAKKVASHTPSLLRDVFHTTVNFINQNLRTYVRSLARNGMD
Procedure: Apoptosis was examined by DAPI staining. The data shown were obtained using the cytosolic form of Humanin; however, both cytosolic and mitochondrial forms of Humanin were tested and the results were the same.
Rat neuronal cell line CSM14.1 cells were transfected with various plasmids using the Lipofectamine reagent (Invitrogen). For transfection, 10×10^5 cells were plated per well using 6 well plates. Each well received 1 μg DNA plus […] of Lipofectamine. After 24 hours of transfection, the percentage of cell death was determined using 4′-6-diamidino-2-phenylindole (DAPI) staining. […] The data shown were obtained using the cytosolic form of Humanin; however, both cytosolic and mitochondrial forms of Humanin were tested and the results were the same.

Chain of Bax (Q07812 whole entry, species assumed, the tested form may be a part): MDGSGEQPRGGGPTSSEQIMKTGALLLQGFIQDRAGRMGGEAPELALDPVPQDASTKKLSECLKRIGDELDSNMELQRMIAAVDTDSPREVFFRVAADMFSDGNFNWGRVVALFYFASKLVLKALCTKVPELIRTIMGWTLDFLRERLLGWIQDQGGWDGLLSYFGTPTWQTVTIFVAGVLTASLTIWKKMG

Substance | suppression of STS-induced apoptosis [1] | Bax suppression (Bax) | Bid-induced apoptosis (t-Bid)
GFP-HN: Wild-type full-length Humanin fused to Green Fluorescent Protein | failed to suppress | + (ability to suppress apoptosis induced by Bax over-expression by >50%) | 
Humanin: 24 amino acid polypeptide, cytosolic form of human Humanin (SEQ ID NO:2); used as synthetic peptide or expressed fusion |  |  | decreased

— patent publication US7422862B2, “Methods for identifying modulators of apoptosis” (The Burnham Institute, priority 2001, dated 2008)
